For the assay, the target named is LegAS4 (84–532aa), RomA homolog of L. pneumophila strain Philadelphia (L. pneumophila strain Philadelphia, UniProt Q5ZUS4 84-532). Nature of the assay: crystal structure. The settings on record: both partners purified.

B1: histone H3 peptide P2 (12-mer, residues 1-12), NH2-ARTKQTARKSTG-COOH (peptide)
peptide: H-ARTKQTARKSTG-OH
notes: also called 12-mer peptide
As for B1, the binding result is listed as “binds”.

B2: histone H3 peptide P1 (15-mer, residues 3-17), NH2-TKQTARKSTGGKAPR-COOH (peptide)
peptide: H-TKQTARKSTGGKAPR-OH
notes: also called 15-mer peptide; (3-17)-N-terminal H3 P1 peptide
Consider B2, for which the binding result is on record as “binds”.
